The numbers were not newly measured in paper PMC3381941, which cites them from elsewhere.

Data set [1] addresses Mtf1 (Saccharomyces cerevisiae) (UniProt P14908). Kind of data set: protein-protein crosslinking.
Data set [2] has the same target. The data set can be described thus: protein-protein crosslinking. The source holds these as a separate data set.

Like-named read-outs stand apart in the source and are kept apart here.

Chain of UniProt P14908 (P14908 2-341): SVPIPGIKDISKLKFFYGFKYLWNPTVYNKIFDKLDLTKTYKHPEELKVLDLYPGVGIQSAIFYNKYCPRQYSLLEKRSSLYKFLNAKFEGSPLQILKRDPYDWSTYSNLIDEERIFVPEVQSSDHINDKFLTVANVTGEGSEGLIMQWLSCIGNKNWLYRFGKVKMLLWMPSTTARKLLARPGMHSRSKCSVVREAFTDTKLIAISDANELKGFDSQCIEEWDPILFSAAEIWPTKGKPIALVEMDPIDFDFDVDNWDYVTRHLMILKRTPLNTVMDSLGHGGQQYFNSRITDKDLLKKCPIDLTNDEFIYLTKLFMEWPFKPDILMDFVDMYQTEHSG

As to Rpo41 (from UniProt P13433), the Kd (as a rule, the concentration at which binding is half-saturated) in data set [1] is 400 nM; in data set [2], 600 nM.
